B1: Histone chaperone RTT106 (Saccharomyces cerevisiae), P40161 (parent)
chain: MSKLFLDELPESLSRKIGTVVRVLPSSLEIFEELYKYALNENSNDRSGRHKKPRIDVSSDLLKTDEISETNTIFKLEGVSVLSPLRKKLDLVFYLSNVDGSPVITLLKGNDRELSIYQLNKNIKMASFLPVPEKPNLIYLFMTYTSCEDNKFSEPVVMTLNKENTLNQFKNLGLLDSNVTDFEKCVEYIRKQAILTGFKISNPFVNSTLVDTDAEKINSFHLQCHRGTKEGTLYFLPDHIIFGFKKPILLFDASDIESITYSSITRLTFNASLVTKDGEKYEFSMIDQTEYAKIDDYVKRKQMKDKSMSEELKAKSKSKGQATDGTADQPSILQEATRQMQDEKKAGVFSDDDEENDQNFEAESDLSDGSGQESSDGAEDGEEAEEDDEEDDEEEDKKGQSALNRDNSFASINGQPEQELQYKEFKEPLELEDIPIEIDNDDDEDDEDGSGVEYD

Variants of: B1
Conditions: with h3_yeast HHT1, P61830

effect of a mutation on the interaction | Variant
decreasing interaction strength | MSKLFLDELPESLSRKIGTVVRVLPSSLEIFEELYKYALNENSNDRSGRHKKPRIDVSSDLLKTDEISETNTIFKLEGVSVLSPLRKKLDLVFYLSNVDGSPVITLLKGNDRELSIYQLNKNIKMASFLPVPEKPNLIYLFMTYTSCEDNKFSEPVVMTLNKENTLNQFKNLGLLDSNVTDFEKCVEYIRKQAILTGFKISNPFVNSTLVDTDAEKINSFHLQCHRGTKEGTLYFLPDHIIFGFKKPILLFDASDIESITYSSITRLTFNASLVTKDGEKYEFSMIDATEYAKIDDYVKRKQMKDKSMSEELKAKSKSKGQATDGTADQPSILQEATRQMQDEKKAGVFSDDDEENDQNFEAESDLSDGSGQESSDGAEDGEEAEEDDEEDDEEEDKKGQSALNRDNSFASINGQPEQELQYKEFKEPLELEDIPIEIDNDDDEDDEDGSGVEYD [Q288A]
disrupting interaction strength | MSKLFLDELPESLSRKIGTVVRVLPSSLEIFEELYKYALNENSNDRSGRHKKPRIDVSSDLLKTDEISETNTIFKLEGVSVLSPLRKKLDLVFYLSNVDGSPVITLLKGNDRELSIYQLNKNIKMASFLPVPEKPNLIYLFMTYTSCEDNKFSEPVVMTLNKENTLNQFKNLGLLDSNVTDFEKCVEYIRKQAILTGFKISNPFVNSTLVDTDAEKINSFHLQCHRGTKEGTLYFLPDHIIFGFKKPILLFDASDIESITASSITRLTFNASLVTKDGEKYEFSMIDQTEYAKIDDYVKRKQMKDKSMSEELKAKSKSKGQATDGTADQPSILQEATRQMQDEKKAGVFSDDDEENDQNFEAESDLSDGSGQESSDGAEDGEEAEEDDEEDDEEEDKKGQSALNRDNSFASINGQPEQELQYKEFKEPLELEDIPIEIDNDDDEDDEDGSGVEYD [Y261A]
disrupting interaction strength | MSKLFLDELPESLSRKIGTVVRVLPSSLEIFEELYKYALNENSNDRSGRHKKPRIDVSSDLLKTDEISETNTIFKLEGVSVLSPLRKKLDLVFYLSNVDGSPVITLLKGNDRELSIYQLNKNIKMASFLPVPEKPNLIYLFMTYTSCEDNKFSEPVVMTLNKENTLNQFKNLGLLDSNVTDFEKCVEYIRKQAILTGFKISNPFVNSTLVDTDAEKINSFHLQCHRGTKEGTLYFLPDHIIFGFKKPILLFDASDIESITYSSITRLTFNASLVTKDGEKYEFSMIDQTEAAKIDDYVKRKQMKDKSMSEELKAKSKSKGQATDGTADQPSILQEATRQMQDEKKAGVFSDDDEENDQNFEAESDLSDGSGQESSDGAEDGEEAEEDDEEDDEEEDKKGQSALNRDNSFASINGQPEQELQYKEFKEPLELEDIPIEIDNDDDEDDEDGSGVEYD [Y291A]
disrupting interaction strength | MSKLFLDELPESLSRKIGTVVRVLPSSLEIFEELYKYALNENSNDRSGRHKKPRIDVSSDLLKTDEISETNTIFKLEGVSVLSPLRKKLDLVFYLSNVDGSPVITLLKGNDRELSIYQLNKNIKMASFLPVPEKPNLIYLFMTYTSCEDNKFSEPVVMTLNKENTLNQFKNLGLLDSNVTDFEKCVEYIRKQAILTGFKISNPFVNSTLVDTDAEKINSFHLQCHRGTKEGTLYFLPDHIIFGFKKPILLFDASDIESITYSSITRLTFNASLVTKDGEKYEFSMIDQTEYAKADDYVKRKQMKDKSMSEELKAKSKSKGQATDGTADQPSILQEATRQMQDEKKAGVFSDDDEENDQNFEAESDLSDGSGQESSDGAEDGEEAEEDDEEDDEEEDKKGQSALNRDNSFASINGQPEQELQYKEFKEPLELEDIPIEIDNDDDEDDEDGSGVEYD [I294A]
disrupting interaction strength | MSKLFLDELPESLSRKIGTVVRVLPSSLEIFEELYKYALNENSNDRSGRHKKPRIDVSSDLLKTDEISETNTIFKLEGVSVLSPLRKKLDLVFYLSNVDGSPVITLLKGNDRELSIYQLNKNIKMASFLPVPEKPNLIYLFMTYTSCEDNKFSEPVVMTLNKENTLNQFKNLGLLDSNVTDFEKCVEYIRKQAILTGFKISNPFVNSTLVDTDAEKINSFHLQCHRGTKEGTLYFLPDHIIFGFKKPILLFDASDIESITYSSITRLTANASLVTKDGEKYEFSMIDQTEYAKIDDYVKRKQMKDKSMSEELKAKSKSKGQATDGTADQPSILQEATRQMQDEKKAGVFSDDDEENDQNFEAESDLSDGSGQESSDGAEDGEEAEEDDEEDDEEEDKKGQSALNRDNSFASINGQPEQELQYKEFKEPLELEDIPIEIDNDDDEDDEDGSGVEYD [F269A]
decreasing interaction strength | MSKLFLDELPESLSRKIGTVVRVLPSSLEIFEELYKYALNENSNDRSGRHKKPRIDVSSDLLKTDEISETNTIFKLEGVSVLSPLRKKLDLVFYLSNVDGSPVITLLKGNDRELSIYQLNKNIKMASFLPVPEKPNLIYLFMTYTSCEDNKFSEPVVMTLNKENTLNQFKNLGLLDSNVTDFEKCVEYIRKQAILTGFKISNPFVNSTLVDTDAEKINSFHLQCHRGTKEGTLYFLPDHIIFGFKKPILLFDASDIESATYSSITRLTFNASLVTKDGEKYEFSMIDQTEYAKIDDYVKRKQMKDKSMSEELKAKSKSKGQATDGTADQPSILQEATRQMQDEKKAGVFSDDDEENDQNFEAESDLSDGSGQESSDGAEDGEEAEEDDEEDDEEEDKKGQSALNRDNSFASINGQPEQELQYKEFKEPLELEDIPIEIDNDDDEDDEDGSGVEYD [I259A]

Variants of: B1
Conditions: with h3_yeast HHT1, P61830
Remark: another data set of the same source

effect of a mutation on the interaction | Variant
disrupting interaction strength | MSKLFLDELPESLSRKIGTVVRVLPSSLEIFEELYKYALNENSNDRSGRHKKPRIDVSSDLLKTDEISETNTIFKLEGVSVLSPLRKKLDLVFYLSNVDGSPVITLLKGNDRELSIYQLNKNIKMASFLPVPEKPNLIYLFMTYTSCEDNKFSEPVVMTLNKENTLNQFKNLGLLDSNVTDFEKCVEYIRKQAILTGFKISNPFVNSTLVDTDAEKINSFHLQCHRGTKEGTLYFLPDHIIFGFKKPILLFDASDIESITYSSITRLTFNASLVTKDGEKYEFSMIDQTEYAKIDDAVKRKQMKDKSMSEELKAKSKSKGQATDGTADQPSILQEATRQMQDEKKAGVFSDDDEENDQNFEAESDLSDGSGQESSDGAEDGEEAEEDDEEDDEEEDKKGQSALNRDNSFASINGQPEQELQYKEFKEPLELEDIPIEIDNDDDEDDEDGSGVEYD [Y297A]
disrupting interaction strength | MSKLFLDELPESLSRKIGTVVRVLPSSLEIFEELYKYALNENSNDRSGRHKKPRIDVSSDLLKTDEISETNTIFKLEGVSVLSPLRKKLDLVFYLSNVDGSPVITLLKGNDRELSIYQLNKNIKMASFLPVPEKPNLIYLFMTYTSCEDNKFSEPVVMTLNKENTLNQFKNLGLLDSNVTDFEKCVEYIRKQAILTGFKISNPFVNSTLVDTDAEKINSFHLQCHRGTKEGTLYFLPDHIIFGFKKPILLFDASDIESITYSSITRLTFNASLVTKDGEKYEFSMIDQTEYAKIADYVKRKQMKDKSMSEELKAKSKSKGQATDGTADQPSILQEATRQMQDEKKAGVFSDDDEENDQNFEAESDLSDGSGQESSDGAEDGEEAEEDDEEDDEEEDKKGQSALNRDNSFASINGQPEQELQYKEFKEPLELEDIPIEIDNDDDEDDEDGSGVEYD [D295A]
disrupting interaction strength | MSKLFLDELPESLSRKIGTVVRVLPSSLEIFEELYKYALNENSNDRSGRHKKPRIDVSSDLLKTDEISETNTIFKLEGVSVLSPLRKKLDLVFYLSNVDGSPVITLLKGNDRELSIYQLNKNIKMASFLPVPEKPNLIYLFMTYTSCEDNKFSEPVVMTLNKENTLNQFKNLGLLDSNVTDFEKCVEYIRKQAILTGFKISNPFVNSTLVDTDAEKINSFHLQCHRGTKEGTLYFLPDHIIFGFKKPILLFDASDIESATYSSITRLTFNASLVTKDGEKYEFSMIDQTEYAKIDDYVKRKQMKDKSMSEELKAKSKSKGQATDGTADQPSILQEATRQMQDEKKAGVFSDDDEENDQNFEAESDLSDGSGQESSDGAEDGEEAEEDDEEDDEEEDKKGQSALNRDNSFASINGQPEQELQYKEFKEPLELEDIPIEIDNDDDEDDEDGSGVEYD [I259A]
